From paper PMC5921835 come the findings set out here.

Changes are numbered by the printed parent chain. In names and notes the source's numbering stands.

The labels stand for the following.
B1: sclareol synthase from Salvia sclarea (SsSS) (Salvia sclarea) (protein)
chain: AKMKENFKREDDKFPTTTTLRSEDIPSNLCIIDTLQRLGVDQFFQYEINTILDNTFRLWQEKHKVIYGNVTTHAMAFRLLRVKGYEVSSEELAPYGNQEAVSQQTNDLPMIIELYRAANERIYEEERSLEKILAWTTIFLNKQVQDNSIPDKKLHKLVEFYLRNYKGITIRLGARRNLELYDMTYYQALKSTNRFSNLCNEDFLVFAKQDFDIHEAQNQKGLQQLQRWYADCRLDTLNFGRDVVIIANYLASLIIGDHAFDYVRLAFAKTSVLVTIMDDFFDCHGSSQECDKIIELVKEWKENPDAEYGSEELEILFMALYNTVNELAERARVEQGRSVKEFLVKLWVEILSAFKIELDTWSNGTQQSFDEYISSSWLSNGSRLTGLLTMQFVGVKLSDEMLMSEECTDLARHVCMVGRLLNDVCSSEREREENIAGKSYSILLATEKDGRKVSEDEAIAEINEMVEYHWRKVLQIVYKKESILPRRCKDVFLEMAKGTFYAYGINDELTSPQQSKEDMKSFVF
B2: sclareol synthase from Salvia sclarea (SsSS) (Salvia sclarea; N431I) (protein)
chain: B1 chain with N380I
B3: sclareol synthase from Salvia sclarea (SsSS) (Salvia sclarea; N431Q) (protein)
chain: B1 chain with N380Q

Substrate in this series: C/C(=C\COP(=O)(O)OP(=O)(O)O)CC[C@@H]1[C@@]2(C)CCCC(C)(C)[C@@H]2CC[C@@]1(C)O
As to the kind of experiment: steady-state kinetics. The format is biochemical, Salvia sclarea. The following applies: mean ± SE of three experiments; assay conditions only in the supplement.
One may read the Km as the substrate concentration at which the rate is half of its maximum. The term kcat denotes the maximal rate divided by the concentration of active sites. As usually defined, the kcat/Km is the turnover number divided by the Michaelis constant. On to B1, for which the Km is 7 ± 2 µM, the kcat was 0.53 ± 0.04 s⁻¹ and the catalytic efficiency (kcat/Km) stood at 76000 M⁻¹ s⁻¹.

Regarding B2, the Michaelis constant (Km) turned out to be 6 ± 1 µM, the kcat is 0.38 ± 0.02 s⁻¹ and the specificity constant (kcat/Km) stood at 63000 M⁻¹ s⁻¹.

With B3, the Km came out at 10 ± 1 µM, the kcat turned out to be 0.47 ± 0.02 s⁻¹ and the kcat/Km was determined as 47000 M⁻¹ s⁻¹.
